Source: PMC6158044 (Molecular microbiology, 2018)

What was measured:
PrgB188-1233 = PrgB188-1233 (Enterococcus faecalis, UniProt Q04112); experiment: isothermal titration calorimetry; type: binding
PrgB246-558 = PrgB246-558 (Enterococcus faecalis, UniProt Q04112); experiment: isothermal titration calorimetry; type: binding
PrgB188-1233 monomer = PrgB188-1233 monomer (Enterococcus faecalis (plasmid pCF10), UniProt Q04112 188-1233); experiment: ITC
PrgB188-1233 dimer = PrgB188-1233 dimer (Enterococcus faecalis (plasmid pCF10), UniProt Q04112 188-1233); experiment: ITC
[1] = target: PrgB246-558 adhesin domain (Enterococcus faecalis (plasmid pCF10), UniProt Q04112 246-558); experiment: ITC

| Molecule | Kd (PrgB188-1233) | Kd (PrgB246-558) | Kd (PrgB188-1233 monomer) | Kd (PrgB188-1233 dimer) | Kd [1] |
| --- | --- | --- | --- | --- | --- |
| O=P(O)(O)OCC(O)CO (centres unmarked) [glycerol phosphate] | 309 ± 55.3 µM | 276 ± 71.2 µM | – | – | – |
| 19-bp dsDNA (dsDNA) DNA 1: GGGGGCGGGGCGGGCGGCG DNA 2: CGCCGCCCGCCCCGCCCCC | – | – | 364 ± 73.8 µM | 164 ± 42.4 µM | 46.2 ± 14.5 µM |
